Results on one substance are retold here after patent US20110293620A1.

Assay [1] deals with recombinant PR1/HLA-A*0201 monomer (human). The assay is described as follows: SPR, Biacore; antibody captured on anti-mouse antibody surface, peptide/HLA-A2 as analyte.
Assay [2] shares this target. The assay is described as follows: SPR (BIAcore 3000), BB7.2 captured on an anti-mouse antibody surface, PR1/HLA-A2 monomer (HLA-A2/beta2m/peptide) as analyte in a concentration series, 25 C, first-order kinetic fit; the box below the panel and the text round it to 162 nM. A general note: In SPR one partner is held on a chip, and binding of the other changes the refractive index at the surface.

pKd: −log10 of the molar value.

For orientation: pKd means −log10 of the Kd, conventionally taken in molar units. For the substance “BB7.2 murine monoclonal antibody (HLA-A*0201 allele-specific mouse IgG2a)”, the pKd in assay [1] and in assay [2] was 6.79 in each case.
